# Where two headings read alike, the source gives them in different places.
# Key:
# [1] = target: Taxol-stabilized microtubules (unlabeled, Alexa 647-labelled and biotinylated tubulin 50:2:1.5) (not stated (Pork or Bovine brains)) (UniProt P02550); test: single-molecule TIRF motility assay on microtubules
# [2] = target: microtubules of porcine tubulin (GMPCPP or Paclitaxel stabilised, biotin and Alexa-Fluor-633 labelled) (porcine) (UniProt P02550); test: as above
# [3] = target: microtubules of porcine tubulin (GMPCPP or Paclitaxel stabilised, biotin and Alexa-Fluor-633 labelled) (porcine) (UniProt P02550); test: as above; remark: listed apart in the source
# [4] = target: Drosophila melanogaster KLP61F BASS-XL (extended Bipolar assembly domain minifilament) (Drosophila melanogaster) (UniProt P46863); test: crystal structure
# [5] = target: the molecule itself; test: single-molecule TIRF motility assay on microtubules
# Sequence of Taxol-stabilized microtubules (unlabeled, Alexa 647-labelled and biotinylated tubulin 50:2:1.5) (not stated (Pork or Bovine brains)) (P02550 whole entry, looked up): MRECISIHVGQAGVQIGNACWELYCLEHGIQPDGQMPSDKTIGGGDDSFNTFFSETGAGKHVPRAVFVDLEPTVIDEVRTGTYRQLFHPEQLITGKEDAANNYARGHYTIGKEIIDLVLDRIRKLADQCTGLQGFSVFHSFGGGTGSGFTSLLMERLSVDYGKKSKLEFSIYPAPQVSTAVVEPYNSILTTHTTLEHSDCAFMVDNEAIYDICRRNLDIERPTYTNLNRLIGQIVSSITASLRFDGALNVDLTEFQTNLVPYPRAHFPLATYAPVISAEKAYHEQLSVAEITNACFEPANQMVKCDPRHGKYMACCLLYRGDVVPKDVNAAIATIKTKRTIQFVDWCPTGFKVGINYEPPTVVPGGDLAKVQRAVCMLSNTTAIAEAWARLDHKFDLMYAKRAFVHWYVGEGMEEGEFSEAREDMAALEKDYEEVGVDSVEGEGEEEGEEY
# Sequence of microtubules of porcine tubulin (GMPCPP or Paclitaxel stabilised, biotin and Alexa-Fluor-633 labelled) (porcine) (P02550 whole entry, looked up, the tested form may be a part): as the sequence (P02550 whole entry, looked up) above
Molecule,"dwell time at MT plus ends, longer lifetime population [1] [s]","dwell time at MT plus ends, shorter lifetime population [1] [s]",other results
"human Eg5 kinesin-5 mini-tetramer without tail (hMBX), TMR labelled (from UniProt P52732 1-374; P46863 597-799)",140,14.6,
"Drosophila KLP61F kinesin-5 mini-tetramer without tail (kMBX), neon green tagged (from UniProt P46863 1-369; P46863 597-833)",,,dwell time at MT plus ends [2]: 25 s; dwell time at MT plus ends [3]: 78 s
Drosophila melanogaster KLP61F BASS-XL (extended Bipolar assembly domain minifilament) (from UniProt P46863 620-804) (domain or fragment),,,stoichiometry N [4]: 4
"human Eg5 kinesin-5 mini-tetramer with tail (hMBXt), TMR labelled (from UniProt P52732 1-374; P46863 597-799; P52732 913-1056)",484,16.4,
"human Eg5 kinesin-5 mini-tetramer with tail (hMBXt), TMR labelled (other, Homo sapiens | Drosophila melanogaster, UniProt P52732 1-374, looked up, Tetra-methyl Rhodamine (TMR) on the single reactive cysteine in the neck linker (N358C)) MASQPNSSAKKKEEKGKNIQVVVRVRPFNLAERKASAHSIVESDPVRKEVSVRTGGLADKSSRKTYTFDMVFGASTKQIDVYRSVVAPILDEVIMGYNATIFAYGQTGTGKTFTMEGERSPNEEYTWEEDPLAGIIPRTLHQIFEKLTDNGTEFSVKVSLLEIYNEELFDLLNPSSDVSERLQMFDDPRNKRGVIIKGLEEITVHNKDEVYQILEKGAAKRTTAATLMNAYSSRSHSVFSVTIHMKETTIDGEELVKIGKLNLVDLAGSENIGRSGAVDKRAREAGNINQSLLTLGRVITALVERTPHVPYRESKLTRILQDSLGGRTRTSIIATISPASLNLEETLSTLEYAHRAKCILNKPEVNQKLTKKALAQSLQDQTNLHNKLIGEVMKISDQHSQAFVAKLMEQMQQQQLLMSKEIQTNLQVIEENNQRHKAMLDSMQEKFATIIDSSLQSVEEHAKQMHKKLEQLGAMSLPDAEELQNLQEELANERALAQQEDALLESMMMQMEQIKNLRSKNSISMSVHLNKMEESRLTRNHRIDDIKSGIQDYQKLGIEASQSAQAELTSQMEAGMLLEQDLKLDIPTGTTPQRKSYLYPSTLVRTEPREHLLDQLKRKQPELLMMLNSSENNKEETIPDVDVEEAVLGQYTEEPLSQEPSVDAGVDSSSIGGVPFFQHKKSHGKDKENRGINTLERSKVEETTEHLVTKSRLPLRAQINL",,,binding result [5]: binds

# Source: article doi:10.1101/2021.10.12.463902 (bioRxiv, 2021)
